Nine molecules from US20190315886A1 (JIANGSU HENGRUI MEDICINE, published 2019) can be followed below.

Changes are numbered by the printed parent chain.

Experiment [1] deals with T1, human thrombin with His tag (human, UniProt P00734 328-622). The experiment is described as follows: binding ELISA. (In an ELISA, binding on a coated surface is turned into a signal by an enzyme label.)
The target of experiment [2] is T2, mouse thrombin with His tag (mouse, UniProt P19221 325-618, limits assumed).
T2 construct: also called m-thrombin-His; murine thrombin
The experiment is described as follows: binding ELISA.

The target of experiment [3] is T3, human prothrombin with His tag (human, UniProt P00734 44-622).
T3 construct: also called h-prothrombin-his
The experiment can be described thus: binding ELISA.

For experiment [4], the target named is T1, human thrombin with His tag. The experiment can be described thus: BIAcore.
Experiment [5] deals with T3, human prothrombin with His tag. The experiment is described as follows: BIAcore. Background: In SPR one partner is held on a chip, and binding of the other changes the refractive index at the surface.
For experiment [6], the target named is T1, human thrombin with His tag. The experiment can be described thus: binding ELISA, biotinylated His-tagged human thrombin on streptavidin plate. An excerpt: The binding ability of anti-thrombin antibody was detected by ELISA assay with the antibodies and the human thrombin with His tag. Thrombin protein with His tag labeled with the biotin-labeling kit (Dongren Chemicals, Cat No. LK03) was immobilized into a 96-well microtiter plate by binding to streptavidin coated on the microtiter plate, the strength of the signal after the addition of the antibody was used to determine the binding activity of the antibody to thrombin. The specific experimental method is as follows.
Streptavidin (Sigma, Cat No. S4762-5MG) was diluted to a concentration of 5 μg/ml with PBS buffer, pH 7.4 (Sigma, Cat No. P4417-100TAB) and added to a 96-well plate at a volume of 50 μl/well, and then, the plate was incubated in the incubator at 37° C. for 2 hours. After discarding the liquid, the plates were blocked with 200 μl/well of blocking solution containing 5% skim milk (Guangming skim milk) in PBS, and incubated in the incubator at 37° C. for 2.5 hours or overnight at 4° C. (16-18 hours). After blocking, the blocking solution was discarded and the plate was washed 5 times with PB ST buffer (PBS containing 0.05% tweeen-20, pH7.4). Human thrombin protein with His tag labeled with the biotin-labeling (SEQ ID NO: 2, as shown by the double underline) was diluted with sample dilution (PBS containing 1% BSA, PH7.4) to 50 μg/ml and was added to each well, 50 μl/well. Then the plate was incubated in the incubator at 37° C. for 2 h or overnight. After incubation, the blocking solution in the plate was discarded, and the plate was washed with PBST 6 times, and then 50 μl/well of various concentrations of the test antibodies diluted with sample dilution was added to each well, and the plate was incubated at 37° C. for 2 h. The plates were washed 5 times with PBST after incubation, and 100 μl/well of goat anti-human secondary antibody (Jackson Immuno Research, Cat No. 109-035-003) labeled with HRP was added to each well, diluted in sample dilution, and the plate was incubated at 37° C. for 1 h. After washing the plates 5 times with PBST, 50 μl/well of TMB chromogenic substrate (KPL, Cat No. 52-00-03) was added to each well, and incubated at room temperature for 10-15 min. The reaction was stopped by the addition of 50 μl/well 1M H₂SO₄ to each well.

For experiment [7] the target is unchanged. The experiment can be described thus: Biacore.
Experiment [8] has as its target T3, human prothrombin with His tag. The experiment is described as follows: Biacore.
The target in experiment [9] is T1, human thrombin with His tag. The experiment can be described thus: Biacore; reference h1601-008.
Experiment [10] deals with T3, human prothrombin with His tag. The experiment can be described thus: Biacore; reference h1601-008.
Experiment [11] deals with T1, human thrombin with His tag. The experiment can be described thus: Biacore; ratio of KD on pro-thrombin to KD on thrombin.
Experiment [12] shares this target. The experiment can be described thus: biacore; selectivity thrombin over pro-thrombin, reference h1601-008.
Experiment [13] shares this target. The experiment can be described thus: BIAcore, antibody captured by anti-human antibody.
Experiment [14] addresses T3, human prothrombin with His tag. The experiment can be described thus: BIAcore, antibody captured by anti-human antibody.

B1: chimeric antibody CH-1601 (antibody, human IgG4 S228P, kappa, V domains shown)
VH: EVKLVESEGGLVQPGSSLKLSCTASGFTFSDYYMAWVRQVPEKGLEWVANINSDGSSTYYLDSLKSRFIISRDNAKNILYLQMSSLKSEDTATYYCARDHYHGNSYVFDYWGQGTTLTVSS
VL: DIQMTQSSSSFSVSRGNRVTITCKASEDIYNRLAWYQQKPGNAPRLIISGATSLETGVPSRFSGSGSGKDYTLSITSLQTEDVGTYYCQQYWSTPWTFGGGTKLEIKR
For orientation: EC50 means the concentration at which the effect is half-maximal. The term Kd denotes a measure of binding affinity in units of concentration. Read a high Kd as a looser complex. In the case of B1, the 50% effective concentration (EC50) in experiment [1] worked out at 0.71 nM; in experiment [3], 42.6 nM. The binding result in experiment [2] is “no binding”. The Kd worked out at 2.27 nM in experiment [4] and 78.7 nM in [5].

B2: humanized antibody h1601-005 (antibody, human IgG4 S228P, kappa, V domains shown)
VH: EVQLVESGGGLVQPGGSLRLSCAASGFTFSDYYMAWVRQAPGKGLEWVSNINSDGSSTYYLDSLKSRFTISRDNSKNTLYLQMNSLKAEDTAVYYCARDHYHGNSYVFDYWGQGTTVTVSS
VL: DIQMTQSPSSLSASVGDRVTITCKASEDIYNRLAWYQQKPGKAPKLLISGATSLETGVPSRFSGSGSGKDFTLTISSLQPEDFATYYCQQYWSTPWTFGGGTKVEIKR
Molecule B2 displayed an EC50 in [6] of 5.8 nM.

B3: aTM-2 (antibody, V domains shown)
VH: B2 VH with H102L, Y110S
VL: DIQMTQSPSSLSASVGDRVTITCKASEDIYNRLAWYQQKPGKAPRLIISGATSLETGVPSRFSGSGSGKDYTLTISSLQPEDFATYYCQQYWSTPWTFGGGTKVEIK
B3: the Kd in experiment [7] worked out at 0.0899 nM; in experiment [8], 1.23 nM. The “Fold of Affinity relative to h1601-008” value was 86.5 fold in [9] and 62.4 fold in [10]. Further, the Selective activity in [11] worked out at 13.7.

B4: aTM-1 (antibody, V domains shown)
VH: B2 VH with H102I, N104A
VL: B3 VL
As for B4, the Kd came to 0.191 nM in experiment [7] and 3.48 nM in experiment [8]. Further, the “Fold of Affinity relative to h1601-008” value came out at 40.7 fold in [9] and 22.1 fold in [10]. In addition, the Selective activity in [11] was determined as 18.2. In addition, the “fold increase of selectivity (against h1601-008)” value in experiment [12] amounted to 1.8 times.

B5: aTM-7 (antibody, V domains shown)
VH: B2 VH with H102M, Y110T
VL: B3 VL
For the molecule B5, the dissociation constant Kd in [7] stood at 0.172 nM; in experiment [8], 2.05 nM. Further, the results for the “Fold of Affinity relative to h1601-008” value in [9] and in experiment [10] were 45.2 fold and 37.5 fold, respectively. For the same molecule, the Selective activity in experiment [11] is 11.9.

B6: humanized antibody h1601-009 (antibody, human IgG4 S228P, kappa, V domains shown)
VH: B2 VH with Q3K, S49A
VL: B2 VL with K45R, L47I, F71Y
In turn, B6 came in with a Kd in experiment [13] of 8.17 nM. In [6], the EC50 came out at 1.49 nM.

B7: aTM-4 (antibody, V domains shown)
VH: B2 VH with H102L, Y110L
VL: B3 VL
For B7, the dissociation constant Kd is 0.144 nM in experiment [7] and 2.62 nM in [8]. For the same molecule, the “Fold of Affinity relative to h1601-008” value in experiment [9] was found to be 54 fold; in experiment [10], 29.3 fold. In addition, the Selective activity in experiment [11] turned out to be 18.2.

B8: humanized antibody h1601-006 (antibody, human IgG4 S228P, kappa, V domains shown)
VH: B2 VH with Q3K, S49A
VL: B2 VL
As for B8, the midpoint of the response in experiment [6], the EC50, lay at 4.45 nM.

B9: humanized antibody h1601-008 (antibody, human IgG4 S228P, kappa, V domains shown)
VH: B2 VH
VL: B2 VL with K45R, L47I, F71Y
For the molecule B9, the Kd came out at 8.97 nM in [13], 94.3 nM in experiment [14], 7.78 nM in experiment [7] and 76.8 nM in [8]. Besides, in [6], the 50% effective concentration (EC50) is 1.54 nM. For the same molecule, the “Fold of Affinity relative to h1601-008” value in experiment [9] and in experiment [10] was 1 fold in each case. For the same molecule, the Selective activity in experiment [11] worked out at 9.9.
